Biological target: T1, mouse IL-4R (mouse, UniProt P16382 26-233, limits assumed)
T1 sequence (looked up): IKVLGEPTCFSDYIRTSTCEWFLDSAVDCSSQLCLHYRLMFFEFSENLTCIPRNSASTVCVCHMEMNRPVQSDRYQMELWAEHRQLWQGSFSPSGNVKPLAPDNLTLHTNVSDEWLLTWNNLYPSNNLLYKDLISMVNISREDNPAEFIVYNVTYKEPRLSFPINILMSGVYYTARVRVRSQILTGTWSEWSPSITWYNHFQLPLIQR
Experiment: cell-based or functional assay

IC50 of inhibition of IL-4-dependent proliferation of cell lines: 1.9 nM
IC50 of inhibition of IL-13-dependent proliferation of cell lines: 0.011 nM
B1: REGN1103 (antibody, V domains shown)
VH: EVQLQQSGPELVKPGASVRMSCKASGYTFTDYNIHWVKQSHGKSLEWIGYIYPNNGDNGYNQKFRGKATLTVDKSSSTAYMELRSLTSDDSAVYYCARGRLRYFDVWGTGTTVTVSS
VL: NIVLTQSPASLAVSLGQRATISCRASESVDNYGHSFMHWYQQKPGQPPKLLIYLASNLESGVPARFSGSGSRTDFTLTLDPVEADDAATYYCQQYNEDPPTFGSGTKLEIK
